± gives the uncertainty stated by the source.
assay: protein stability index of a GFP-peptide fusion (yeast GPS) (PSI 1-4); higher = more stable; sorted into four equal gates, so the index is relative within each strain; details: pdr5∆
Procedure, shortened: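 Tiled 17-residue peptides from yeast proteins were fused downstream of GFP on a plasmid that also expresses Cherry, and the pooled library was carried in yeast. Mid-log cultures grown in leucine-free medium were sorted into four equal gates by GFP/Cherry fluorescence ratio. Plasmids from each gate were PCR-amplified and Illumina-sequenced, and reads were assigned to strains by barcodes. Each peptide's protein stability index is the sum, over gates, of the gate's read frequency multiplied by its gate number.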

Row | Sequence | protein stability index
1 | IPDHLAELIPELYSFQQ [SNF12] | 2.94 ± 0.07
2 | IPQSQQVPQVRSMSGQP [SNF5] | 2.55 ± 0.047
3 | IPRTFRTPVPSTLMPGG [SNF5] | 2.18 ± 0.05
4 | IPSLQNNIEENLRLLNS [ECM29] | 3.17 ± 0.061
5 | IPYAAKLLFQELLSMNI [RET1] | 1.46 ± 0.084
6 | IQAGKFDNKSTSEEQEA [SNF2] | 3.36 ± 0.16
7 | IQEANSVDMSALKDPQT [RIP1] | 3.43 ± 0.21
8 | IQNDIYLNDLMITKRIL [RPN12] | 2.76 ± 0.14
9 | IQQHARYDCSFCGKKTV [RPL43A] | 2.94 ± 0.1
10 | IQSSLMTNLTYFLHLSV [YCS4] | 1.94 ± 0.049
11 | IQVAAFIYGMSAKDHPK [PRP8] | 2.98 ± 0.12
12 | IQVLTEASSLGYLDDSE [IRR1] | 1.56 ± 0.057
13 | IRDPLTQTGLLQDLEEA [RPC82] | 3.2 ± 0.17
14 | IRDSIPQMDSFDKDLER [DIS3] | 3.32 ± 0.1
15 | IREGQNQKIPDNVIVIN [SIR3] | 3.12 ± 0.065
16 | IREIDVTGGKKALVLFV [RPS7B] | 1.5 ± 0.1
17 | IREINYTMSNHGMSVDP [RPO31] | 3.03 ± 0.2
18 | IRGKILTGTVVSTKMHR [RPS11A] | 2.99 ± 0.051
19 | IRKDPNNLSNQLETLTG [CSE2] | 2.91 ± 0.098
20 | IRNCATEAGFFAIRDDR [RPT4] | 3.24 ± 0.079
21 | IRTILVNIHHLLNEYRP [MED7] | 2 ± 0.065
22 | IRYNAKRRNWRRTKMNI [RPL39] | 3.23 ± 0.093
23 | ISAEDRADTDLAMNDDD [SNF2] | 3.45 ± 0.14
24 | ISAFTQFLRLIFVSILS [ARP9] | 1.88 ± 0.1
25 | ISCPLIGVIQLAHYVVT [FAS1] | 1.2 ± 0.041
26 | ISDYQQLESIYFRILLP [SWI1] | 2.33 ± 0.037

Row | Sequence | protein stability index
27 | ISENTFPNGFKNFENGP [RPC34] | 3.03 ± 0.069
28 | ISFRSNLLKNFISSNDA [SNF6] | 1.75 ± 0.086
29 | ISKDCSAFACKTDEVII [BRR2] | 3.38 ± 0.082
30 | ISKTTLTLDPRYIWRSL [RPN3] | 2.61 ± 0.082
31 | ISPESVFGTLGELIKVN [SMC3] | 2.25 ± 0.078
32 | ISSRTFGQRAVLKFAAH [RPS0A] | 2.57 ± 0.098
33 | ISTLQVKLYGREGSSAR [RPB2] | 2.77 ± 0.1
34 | ISTSDVTRIINSSEIQS [RPL4A] | 2.64 ± 0.054
35 | ISVNSSSFSLTFFPRCI [POP1] | 2.66 ± 0.035
36 | ITFHPKIRARSITLQGD [SMC2] | 2.56 ± 0.045
37 | ITFLQTLYIGNTANGRP [ECM29] | 2.73 ± 0.09
38 | ITLENITRLCQTLGLES [MED1] | 2.28 ± 0.044
39 | ITPMNDDQCMLITTYSK [SIN4] | 2.41 ± 0.075
40 | ITQDGKFAYKIDKITDG [YMR129W/POM152] | 3.03 ± 0.073
41 | ITSGGFLLKAYINVSRG [SRB5] | 2.48 ± 0.12
42 | ITSWYENHNKGKLWKDV [QCR9] | 3.14 ± 0.23
43 | ITTFVKRSTVPLNDGFV [YML103C/NUP188] | 2.32 ± 0.093
44 | ITYDKQEPSASQVKDSV [SRP68] | 3.12 ± 0.062
45 | IVDFTLPPPPPPPGLDE [PRP8] | 3.1 ± 0.048
46 | IVGVLQDDADPMVSVMK [RPT2] | 2.31 ± 0.057
47 | IVHDDPASDDILDNINH [ITC1] | 3.02 ± 0.062
48 | IVKGNIIDEIKCIPKKG [POP4] | 1.9 ± 0.05
49 | IVLLDDEGKEIPATIFD [TAF14] | 3.07 ± 0.048
50 | IVLSDQTQEFFLSSFDD [YJL039C/NUP192] | 2.89 ± 0.093
51 | IVMVWLKENTYVMERPK [YDL116W/NUP84] | 1.81 ± 0.06
52 | IVNHEQDLPKINDKRAN [SRB4] | 3.21 ± 0.11

Row | Sequence | protein stability index
53 | IVPDLIINPHAIPSRMT [RPB2] | 2 ± 0.042
54 | IVQFTYGGDGLDPLEME [RPO31] | 3.09 ± 0.2
55 | IVWRFISENTFPNGFKN [RPC34] | 2.05 ± 0.042
56 | IWLRKTSQMDLARDTPS [RRP4] | 1.98 ± 0.051
57 | IWMRGHGTYFLDNMTYS [RRP4] | 2.38 ± 0.051
58 | IYDFPGTPEATKGMITN [NUT2] | 2.54 ± 0.11
59 | IYSSDAQGDPNLEPLIA [NUT1] | 3.12 ± 0.096
60 | IYVHVRRSTPFSKIAEY [ESC2] | 2.33 ± 0.049
61 | KAAISFGAKPEEQKSSD [YJL041W/NSP1] | 2.94 ± 0.2
62 | KAEVTQLSNGIVVATEH [COR1] | 3.15 ± 0.11
63 | KAFEERHQAGKNQWFFS [RPL27A] | 3.14 ± 0.11
64 | KAFKNNSSKYYINEKES [SMC4] | 2.42 ± 0.07
65 | KAGKVAVVVRGRYAGKK [RPL27A] | 2.17 ± 0.053
66 | KAIFPNTVDGDLLKLVH [FAS1] | 3.06 ± 0.14
67 | KAIRGMVSHKTARGKAA [RPL16B] | 2.01 ± 0.057
68 | KAKERLQALKANDEEAY [SNF2] | 2.51 ± 0.15
69 | KAKNPLTHSTPKNFGIG [RPL8B] | 3.35 ± 0.12
70 | KAKSHFTNIISRNKALE [YJL039C/NUP192] | 2.01 ± 0.053
71 | KALAIFVPVPSLAGFHK [RPS7A] | 1.93 ± 0.04
72 | KAPNAVVITFEKEDHTL [RPB11] | 2.7 ± 0.12
73 | KASTYGELVLDIEVPDV [SNF12] | 2.28 ± 0.051
74 | KCKTRAQLTLKRCKHFE [RPL42A] | 2.58 ± 0.085
75 | KCVVIHNGSHRTVAGFS [ARP7] | 2.74 ± 0.048
76 | KDAVDYSKIPNILSNKP [RRP6] | 1.97 ± 0.093
77 | KDEIVLSGNSVEDVSQN [RPL9A] | 3.52 ± 0.26
78 | KDFTNKNLIQLISLKLL [SRB8] | 1.49 ± 0.035

Row | Sequence | protein stability index
79 | KDGRIRIFKITEKLSPL [YGL100W/SEH1] | 2.85 ± 0.09
80 | KDKLREFIPHSTEYMMQ [RPN6] | 3.22 ± 0.11
81 | KDLETLYNKIWTEASSS [ECM29] | 2.84 ± 0.14
82 | KDQLPDLESMGLTQLYK [MED7] | 3.08 ± 0.071
83 | KDRISHEVVQDDSFSLL [PCI8] | 3.46 ± 0.071
84 | KDSNKDVVVEGLRRARY [RPL10] | 3.34 ± 0.071
85 | KDSSLNYSSESYRNAFT [YJL039C/NUP192] | 2.32 ± 0.064
86 | KEDHPLEFYKDKFFNEV [SIR3] | 3.2 ± 0.05
87 | KEILDNILPFLWGPHGL [ECM29] | 3.09 ± 0.24
88 | KEIYYTPDPSELAAKEE [FAS2] | 2.748 ± 0.023
89 | KEKIKNNRQLPYLVANV [RPT5] | 3.1 ± 0.095
90 | KELAELKVQKLSRPSLP [RPL35A] | 2.92 ± 0.052
91 | KELENNLERLRSDLQSK [YIL149C/MLP2] | 3.3 ± 0.094
92 | KERLTKEAAAIAEGKSK [RPL8B] | 2.33 ± 0.056
93 | KETIARVTGGMKVKADR [RPS14A] | 3.13 ± 0.12
94 | KETQQYELEFDTPTSGK [BRR2] | 2.98 ± 0.055
95 | KEVLPDLQNLNLNTDKL [YJL039C/NUP192] | 2.94 ± 0.098
96 | KFDSRIRGILMASGSTT [PRP8] | 2.18 ± 0.11
97 | KFENDELAESTTTKIID [LRP1] | 2.47 ± 0.12
98 | KFFQKKIHLYEKKLEDY [YGL172W/NUP49] | 2.75 ± 0.089
99 | KFKLLNGLAIRRAAYGV [RPS3] | 2.15 ± 0.047
100 | KFMTNSTAFVPTIEYVQ [ARP9] | 2.65 ± 0.048
101 | KFPTRKIYMLYSLQPSV [RPC34] | 2.13 ± 0.23
102 | KFRSSILRKSFDFLMNM [RPN2] | 2.4 ± 0.1
103 | KFSLPFEQKGSQTTTND [YLR335W/NUP2] | 3.08 ± 0.1

— the supplement of paper PMC9732359
